Assay results: patent US20210030857A1 (NGM BIOPHARMACEUTICALS, published 2021)

Assays:
[1] = molecular target: T1, human beta klotho expressed on cells (human, UniProt Q86Z14 1-1044); assay: FACS on transfected Expi293 cells, antibody 1 µg/ml, labelled anti-human Fc
T1 construct: also called HuKLB overexpressing cells; Human KLB
T1 sequence: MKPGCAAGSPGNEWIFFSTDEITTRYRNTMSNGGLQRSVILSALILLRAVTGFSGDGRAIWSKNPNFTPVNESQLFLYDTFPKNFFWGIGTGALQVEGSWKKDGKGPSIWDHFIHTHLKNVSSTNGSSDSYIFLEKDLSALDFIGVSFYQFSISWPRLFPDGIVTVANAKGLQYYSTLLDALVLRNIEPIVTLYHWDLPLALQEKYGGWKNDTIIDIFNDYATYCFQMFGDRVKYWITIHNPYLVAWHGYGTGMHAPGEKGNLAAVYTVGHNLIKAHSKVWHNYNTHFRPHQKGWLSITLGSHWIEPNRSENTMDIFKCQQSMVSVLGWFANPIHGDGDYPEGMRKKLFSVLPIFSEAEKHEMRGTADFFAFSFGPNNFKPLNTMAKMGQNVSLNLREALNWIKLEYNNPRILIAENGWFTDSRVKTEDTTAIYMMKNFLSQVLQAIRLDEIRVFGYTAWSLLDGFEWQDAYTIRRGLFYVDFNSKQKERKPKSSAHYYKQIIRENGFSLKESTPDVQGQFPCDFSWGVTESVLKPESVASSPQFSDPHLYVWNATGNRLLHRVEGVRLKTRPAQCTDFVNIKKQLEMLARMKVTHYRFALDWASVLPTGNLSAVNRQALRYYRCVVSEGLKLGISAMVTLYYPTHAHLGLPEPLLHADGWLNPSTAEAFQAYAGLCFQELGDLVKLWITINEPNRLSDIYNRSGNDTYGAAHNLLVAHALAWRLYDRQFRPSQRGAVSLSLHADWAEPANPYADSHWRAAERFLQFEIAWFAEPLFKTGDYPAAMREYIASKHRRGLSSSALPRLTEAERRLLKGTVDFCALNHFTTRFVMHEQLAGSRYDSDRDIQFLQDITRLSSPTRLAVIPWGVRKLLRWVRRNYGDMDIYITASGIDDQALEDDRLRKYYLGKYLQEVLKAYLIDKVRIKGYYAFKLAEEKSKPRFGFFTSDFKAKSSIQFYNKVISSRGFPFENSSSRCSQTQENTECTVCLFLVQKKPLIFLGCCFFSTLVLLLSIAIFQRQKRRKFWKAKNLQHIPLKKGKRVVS
Protocol: (§1) Studies were performed in order to localize the binding site on human KLB of anti-beta klotho antibodies in the 5H23 epitope bin, including 5H23 as described in Example 3, with sequences shown in Tables 1-10 and FIGS. 1-3, and human anti-beta klotho antibodies in the 5H23 epitope bin, such as humanized 5H23 antibodies (e.g., VH SEQ ID NO: 271 and VL SEQ ID NO: 276). For example, FACS-based binding assays for domain mapping were performed on Expi293 cells (Life Technologies, A14635) that were transiently transfected with plasmids encoding variants of KLB: human, mouse, cynomolgus, a chimeric version in which the KL1 domain sequence of mouse KLB (M1-F506) replaces the KL1 domain of human KLB (M1-F508) to create mouse-human KLB (SEQ ID NO: 376), and a second chimera in which the human KL1 sequence (M1-F508) replaces the KL1 domain of mouse KLB (M1-F506) to create human-mouse KLB (SEQ ID NO: 374). Additionally, the expression vector pYD7 harboring no KLB sequence was transfected as a negative control.
(§2) In some studies, binding of a purified sample of a humanized 5H23 antibody (e.g., VH SEQ ID NO: 271 and VL SEQ ID NO: 276) to KLB variants was determined by FACS analysis. […] After washing with PBS/1% BSA/0.1% azide, transfected cells were then co-incubated with labeled anti-human Fc (Jackson lmmunoresearch) for 30 minutes at 4° C. After washing with PBS/1% BSA/0.1% azide, cells were acquired on flow cytometer (FACS Calibur) and analyzed by cytometric software (FlowJo). To display the resulting data, graphs plotting the number of cells as a function of fluorescence intensity were generated, and the median fluorescence intensity (MFI) was determined for each sample as shown in Table 30.

[2] = molecular target: T2, cynomolgus beta klotho expressed on cells (cynomolgus monkey (Macaca fascicularis), UniProt Q86Z14 1-1044 (human entry)); assay: as above
T2 construct: also called Cynomolgus KLB
T2 chain: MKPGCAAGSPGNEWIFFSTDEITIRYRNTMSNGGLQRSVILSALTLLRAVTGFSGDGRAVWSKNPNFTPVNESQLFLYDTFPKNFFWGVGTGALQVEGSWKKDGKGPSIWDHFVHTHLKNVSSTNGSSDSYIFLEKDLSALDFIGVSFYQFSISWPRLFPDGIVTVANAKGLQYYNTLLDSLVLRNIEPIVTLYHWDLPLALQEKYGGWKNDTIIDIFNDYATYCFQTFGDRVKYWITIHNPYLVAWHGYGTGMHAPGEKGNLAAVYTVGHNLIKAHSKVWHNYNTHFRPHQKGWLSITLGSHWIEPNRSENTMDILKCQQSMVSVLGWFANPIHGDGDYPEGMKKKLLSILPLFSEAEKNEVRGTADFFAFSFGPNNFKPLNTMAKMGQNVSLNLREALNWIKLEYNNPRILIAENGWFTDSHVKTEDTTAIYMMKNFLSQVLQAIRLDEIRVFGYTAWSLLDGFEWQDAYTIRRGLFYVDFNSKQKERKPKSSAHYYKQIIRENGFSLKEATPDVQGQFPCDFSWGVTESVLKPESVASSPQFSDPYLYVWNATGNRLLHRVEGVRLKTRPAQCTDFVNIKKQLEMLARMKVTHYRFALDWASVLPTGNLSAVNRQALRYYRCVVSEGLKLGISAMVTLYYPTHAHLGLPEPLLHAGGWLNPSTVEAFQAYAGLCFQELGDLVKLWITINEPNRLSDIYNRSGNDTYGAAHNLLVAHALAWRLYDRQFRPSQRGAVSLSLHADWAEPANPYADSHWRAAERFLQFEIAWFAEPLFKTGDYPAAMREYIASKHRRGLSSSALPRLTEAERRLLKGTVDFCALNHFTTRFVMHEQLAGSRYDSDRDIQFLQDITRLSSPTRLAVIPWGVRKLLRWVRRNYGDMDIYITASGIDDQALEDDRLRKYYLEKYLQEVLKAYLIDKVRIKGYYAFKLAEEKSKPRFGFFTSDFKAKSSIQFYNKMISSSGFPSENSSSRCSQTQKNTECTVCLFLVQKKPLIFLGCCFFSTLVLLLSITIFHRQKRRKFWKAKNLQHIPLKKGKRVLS
Protocol: as §1, §2

B1: humanized 5H23 antibody (VH SEQ ID NO: 271 and VL SEQ ID NO: 276) (antibody, V domains shown)
VH: QVQLQQSGAEVKKPGASVKVSCKASGYTFTSYDINWVRQAPGQGLEWIGWIYPGDGSTKYNEKFKGKATITRDTSASTAYMELSSLRSEDTAVYFCARSDYYGSRSFAYWGQGTLVTVSS
VL: DIVMTQSPDSLAVSLGERATINCRASKSVSTSGYVYMHWYQQKPGQPPKLLIYLASYLESGVPDRFSGSGSGTDFTLTISSVQAEDVAVYYCQHSRDLTFPFGGGTKLEIK
notes: also called h5H23; h5H23 (Prep 1)
- Mean Fluorescence intensity [1]: 865 MFI
- Mean Fluorescence intensity [2]: 1910 MFI

B2: negative control antibody, anti-keyhole limpet hemocyanin (KLH) antibody (antibody, human IgG1, kappa, V domains shown)
VH: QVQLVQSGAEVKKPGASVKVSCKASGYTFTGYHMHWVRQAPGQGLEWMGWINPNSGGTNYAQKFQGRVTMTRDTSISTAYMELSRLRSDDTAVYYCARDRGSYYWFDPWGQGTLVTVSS
VL: DIQMTQSPSSLSASVGDRVTITCRASQGIRNDLGWYQQKPGKAPKRLIYAASSLQSGVPSRFSGSGSGTEFTLTISSLQPEDFATYYCLQHNSYPLTFGGGTKVEIKR
notes: also called Neg; Control; anti-KLH antibody
- Mean Fluorescence intensity [1]: 6.2 MFI
- Mean Fluorescence intensity [2]: 9.26 MFI
